As a reminder, the stoichiometry N is a count of units in the complex or per binding partner.

From doi:10.1101/815886 (bioRxiv, 2019) come the findings set out here.

The chains are these.
B1: human STN1 (subunit of the purified recombinant CST complex) (natural protein)
chain: MQPGSSRCEEETPSLLWGLDPVFLAFAKLYIRDILDMKESRQVPGVFLYNGHPIKQVDVLGTVIGVRERDAFYSYGVDDSTGVINCICWKKLNTESVSAAPSAARELSLTSQLKKLQETIEQKTKIEIGDTIRVRGSIRTYREEREIHATTYYKVDDPVWNIQIARMLELPTIYRKVYDQPFHSSALEKEEALSNPGALDLPSLTSLLSEKAKEFLMENRVQSFYQQELEMVESLLSLANQPVIHSASSDQVNFKKDTTSKAIHSIFKNAIQLLQEKGLVFQKDDGFDNLYYVTREDKDLHRKIHRIIQQDCQKPNHMEKGCHFLHILACARLSIRPGLSEAVLQQVLELLEDQSDIVSTMEHYYTAF
B2: human CTC1 (subunit of the purified recombinant CST complex) (natural protein)
chain: MAAGRAQVPSSEQAWLEDAQVFIQKTLCPAVKEPNVQLTPLVIDCVKTVWLSQGRNQGSTLPLSYSFVSVQDLKTHQRLPCCSHLSWSSSAYQAWAQEAGPNGNPLPREQLLLLGTLTDLSADLEQECRNGSLYVRDNTGVLSCELIDLDLSWLGHLFLFPRWSYLPPARWNSSGEGHLELWDAPVPVFPLTISPGPVTPIPVLYPESASCLLRLRNKLRGVQRNLAGSLVRLSALVKSKQKAYFILSLGRSHPAVTHVSIIVQVPAQLVWHRALRPGTAYVLTELRVSKIRGQRQHVWMTSQSSRLLLLKPECVQELELELEGPLLEADPKPLPMPSNSEDKKDPESLVRYSRLLSYSGAVTGVLNEPAGLYELDGQLGLCLAYQQFRGLRRVMRPGVCLQLQDVHLLQSVGGGTRRPVLAPCLRGAVLLQSFSRQKPGAHSSRQAYGASLYEQLVWERQLGLPLYLWATKALEELACKLCPHVLRHHQFLQHSSPGSPSLGLQLLAPTLDLLAPPGSPVRNAHNEILEEPHHCPLQKYTRLQTPSSFPTLATLKEEGQRKAWASFDPKALLPLPEASYLPSCQLNRRLAWSWLCLLPSAFCPAQVLLGVLVASSHKGCLQLRDQSGSLPCLLLAKHSQPLSDPRLIGCLVRAERFQLIVERDVRSSFPSWKELSMPGFIQKQQARVYVQFFLADALILPVPRPCLHSATPSTPQTDPTGPEGPHLGQSRLFLLCHKEALMKRNFCVPPGASPEVPKPALSFYVLGSWLGGTQRKEGTGWGLPEPQGNDDNDQKVHLIFFGSSVRWFEFLHPGQVYRLIAPGPATPMLFEKDGSSCISRRPLELAGCASCLTVQDNWTLELESSQDIQDVLDANKSLPESSLTDLLSDNFTDSLVSFSAEILSRTLCEPLVASLWMKLGNTGAMRRCVKLTVALETAECEFPPHLDVYIEDPHLPPSLGLLPGARVHFSQLEKRVSRSHNVYCCFRSSTYVQVLSFPPETTISIPLPHIYLAELLQGGQSPFQATASCHIVSVFSLQLFWVCAYCTSICRQGKCTRLGSTCPTQTAISQAIIRLLVEDGTAEAVVTCRNHHVAAALGLCPREWASLLDFVQVPGRVVLQFAGPGAQLESSARVDEPMTMFLWTLCTSPSVLRPIVLSFELERKPSKIVPLEPPRLQRFQCGELPFLTHVNPRLRLSCLSIRESEYSSSLGILASSC

Holding throughout (assay): cryo-EM structure
Series [1] concerns the target B2.
The series “cryo-EM structure” deals with the molecule itself.
In series [2] the target is B1.

With B1, in series [1], the “stoichiometry N” value was 1.
Take B2: the binding result in “cryo-EM structure” is “binds”.

B3: human TEN1 (subunit of the purified recombinant CST complex) (natural protein)
chain: MMLPKPGTYYLPWEVSAGQVPDGSTLRTFGRLCLYDMIQSRVTLMAQHGSDQHQVLVCTKLVEPFHAQVGSLYIVLGELQHQQDRGSVVKARVLTCVEGMNLPLLEQAIREQRLYKQERGGSQ
Take B3: the “stoichiometry N” value in series [2] is 1. For the same molecule, in series [1], the binding result is given as “binds”.
